Experimental data: paper PMC3284002 (The Journal of Cell Biology, 2012)

B1: GST–GSP-2 (enzyme)
chain: MDVEKLNLDNIISRLLEVRGSKPGKNVQLTESEIKGLCQKSREIFLSQPILLELEAPLKICGDVHGQYYDLLRLFEYGGFPPESNYLFLGDYVDRGKQSLETICLLLAYKIKYPENFFLLRGNHECASINRIYGFYDECKRRYNIKLWKTFTDCFNCLPVAAIIDEKIFCCHGGLSPDLQSMEQIRRIMRPTDVPDQGLLCDLLWSDPDKDVTGWGENDRGVSFTFGPEVVAKFLHKHDLDLICRAHQVVEDGYEFFAKRQLVTLFSAPNYCGEFDNAGSMMTVDETLMCSFQILKPADKKKYPYGAGGVGSNRPVTPPRNAPAAQPKKGAKK
B2: KNL-1^1–505–6xHis Δ9 (domain or fragment)
chain: NSILKVRQAVETIEETVMNSGPSSTTTNRRVSFHNVKHVKQYDRDHGKILDATPVKEKITDTIGSDGILTPRGGNMDISESPACTSSFQVFGGGNLDKTMDMSLETTINENNETARLFETTRDPTLLYEKIVETTTKVTERIVSMPLDDTLAMFNTTNQEDKDMSVDRSVLFTIPKVPKHNATMNRTIPMDLDESKAAGGQCDETMNVFNFTNLEAAEMDTSKLDENNTMNAIRIPINSNVMPVDMDITEHHTLIEEKKNDTFGPSQLMDISAPQVQVNDTLAIFNSPRDICNKGLGVPQNLINIASNVVPVDMDITDQAVLNAEKKNDQFETSQLMDISIPKVLVNDTMAMFNSPKHVSKSSMDLEKTIEAADKSTKYPSIADEVEDLDMDMDITEQQPCEAGNQQNDGLQLQKEDLMDISVIRDSPAVNDTMAVFQSPARVKIGANNSIIDSQKSIVFGDEMSIDETQNDGTLTLPKSNVEVTTTNDVYTSLER

Key:
[1] = target: T1, KNL-1^1–505–6xHis, wild type (C. elegans, UniProt P34278 1-505); assay: pull-down
T1 sequence: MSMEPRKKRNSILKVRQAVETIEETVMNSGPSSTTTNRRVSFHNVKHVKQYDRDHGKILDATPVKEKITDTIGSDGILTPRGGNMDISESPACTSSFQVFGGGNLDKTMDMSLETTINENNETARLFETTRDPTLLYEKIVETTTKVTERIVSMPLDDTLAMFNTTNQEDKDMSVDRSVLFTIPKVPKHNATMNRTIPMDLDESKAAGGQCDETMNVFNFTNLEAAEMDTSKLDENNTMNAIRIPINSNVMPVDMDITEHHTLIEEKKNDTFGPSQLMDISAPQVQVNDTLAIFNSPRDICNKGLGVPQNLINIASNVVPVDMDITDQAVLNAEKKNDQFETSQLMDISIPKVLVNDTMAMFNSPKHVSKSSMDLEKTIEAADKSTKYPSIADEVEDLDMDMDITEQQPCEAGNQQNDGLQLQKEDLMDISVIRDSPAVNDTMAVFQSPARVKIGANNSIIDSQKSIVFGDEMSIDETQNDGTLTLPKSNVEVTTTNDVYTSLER

KNL-1^1–505–6xHis Δ9 = target: B2; assay: pull-down
SEC = target: the molecule itself; assay: SEC

## B1
[1]
  binding result: binds
KNL-1^1–505–6xHis Δ9
  binding result: binds

## B2
SEC
  binding result: binds
